Data published in patent US20060216231, “Methods for diagnosing and treating tumors and suppressing cd promoters” (published 2006).

How the values were obtained:
hnRNP-K (GST fusion) [1] = target: T1, hnRNP-K (GST fusion) (Homo sapiens, UniProt P61978 SEQ:1-463); assay: competition; unrelated competitor oligonucleotide; outcome not explicitly described in text; conditions: tags: N-terminal GST fusion, expressed in E. coli XL-2 (construct from D. Levens)
Experimental: (§1) Binding reactions containing GST/hnRNP-K were performed in the absence (GST-K) or presence (+) of a 100 fold molar excess of unlabeled CD43 PyRo SS, the presence of Mut-11 (Mut) representing a mutant version of CD43 PyRo SS which fails to support PyRol binding Farokhzad et al., (2000) Nucleic Acids Research, 28:2256-2267) or the presence of an unrelated oligonucleotide (NS). The free probe and probe bound by the GST/hnRNP-K protein (GST:hnRNP-K) are arrowed.

hnRNP-K (GST fusion) [2] = target: T1, hnRNP-K (GST fusion); assay: EMSA; 70 mM KCl, 5 mM NaCl, 20 mM Tris pH 7.5, poly(dI-dC), 4 C; competed by 100-fold unlabeled self; conditions: tags: N-terminal GST fusion, expressed in E. coli XL-2 (construct from D. Levens); label: 32P 5'
Experimental: as §1

hnRNP-K (GST fusion) [3] = target: T1, hnRNP-K (GST fusion); assay: competition; 100-fold excess fails to compete n1 binding; conditions: tags: N-terminal GST fusion, expressed in E. coli XL-2 (construct from D. Levens)
Experimental: as §1

Binder: GAGTTAGCTCACTCATTAGG (ssDNA) [NS-SS]
- binding result (hnRNP-K (GST fusion) [1]): no binding

Binder: GGGCCCACTTCCTTTCCCCTTG (ssDNA) [CD43 PyRo SS]
- binding result (hnRNP-K (GST fusion) [2]): binds

Binder: GGGCCCACTTCCTTCATATATG (ssDNA) [CD43 Mut-11]
- binding result (hnRNP-K (GST fusion) [3]): no binding
